For the series, the target named is enzymatically [3H] acetylated histone H3 peptide (amino acids 1-24), P68431.

B1: human SIRT1 with a C-terminal FLAG tag (protein)
chain: MADEAALALQPGGSPSAAGADREAASSPAGEPLRKRPRRDGPGLERSPGEPGGAAPEREVPAAARGCPGAAAAALWREAEAEAAAAGGEQEAQATAAAGEGDNGPGLQGPSREPPLADNLYDEDDDDEGEEEEEAAAAAIGYRDNLLFGDEIITNGFHSCESDEEDRASHASSSDWTPRPRIGPYTFVQQHLMIGTDPRTILKDLLPETIPPPELDDMTLWQIVINILSEPPKRKKRKDINTIEDAVKLLQECKKIIVLTGAGVSVSCGIPDFRSRDGIYARLAVDFPDLPDPQAMFDIEYFRKDPRPFFKFAKEIYPGQFQPSLCHKFIALSDKEGKLLRNYTQNIDTLEQVAGIQRIIQCHGSFATASCLICKYKVDCEAVRGDIFNQVVPRCPRCPADEPLAIMKPEIVFFGENLPEQFHRAMKYDKDEVDLLIVIGSSLKVRPVALIPSSIPHEVPQILINREPLPHLHFDVELLGDCDVIINELCHRLGGEYAKLCCNPVKLSEITEKPPRTQKELAYLSELPPTPLHVSEDSSSPERTSPPDSSVIVTLLDQAAKSNDDLDVSESKGCMEEKPQEVQTSRNVESIAEQMENPDLKNVGSSTGEKNERTSVAGTVRKCWPNRVAKEQISRRLDGNQYLFLPPNRYIFHGAEVYSDSEDDVLSSSSCGSNSDSGTCQSPSLEEPMEDESEIEEFYNGLEDEPDVPERAGGAGFGTDGDDQEAINEAISVKQEVTDMNYPSNKS
For B1, the “standard histone deacetylase assay (radioactive, H3 peptide substrate)” value was “These enzymes also deacetylate histones as determined in a standard histone deacetylase assay”.

The record behind these values is US20100160262.
